Assay results: the domain aggregation screens of Martell et al. (2025)

assay: soluble fraction after stress (log2 fold change); higher = more stays soluble; pooled small domains, quantitative proteomics; conditions: stress: 50 degC
How it was run: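 After stress at 50°C, the amount of each protein still soluble was measured. This was done on pooled custom libraries of small protein domains, using high-throughput quantitative proteomics. The figure given is a base-two log fold change and stands for aggregation propensity, with higher values meaning more protein stays in solution.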

Sequence | soluble fraction (log2)
HMLMDVRVPDIIGVEINQAKEILTASSLLIGKITYVSLPEIEKDLVIETSVLAGRRVSAGTVIDITVNKE | -0.76
HMQSLAAKINGYIVAQRTSIAAIAKEIGYSRVTVSRYLAGKYDSDPTGIEAKLAAFLAGQTGEE | -1.75
HMQIYSQEIYDAQKVLKELGLYTSDLDGLNGPGTKRALRNFQSKSGLNADGVLGPLTKSALDKGEESYITV | 0.0375
HMNTVAKELATQATQAKKRAFLDAYAETGIIKRAAEIAGIERKSHYLWLEKDPEYVEAFKSAGEQ | 0.301
HMNSQSGKGGVGYILETKYGLNLPPKMREAMGYAAKGVSDHLHKELHPDEIFDLFKKTFENVGQPYS | -0.0272
HMQISLDTKLINLEFSVRANNVFRENQIFTLRDLTSHSKEDLMLMTNFGKTTLYEVNKKLEEHQLKLSQ | -2.69
HMVQMKIRAYELEPNDFFIKQNMTYRVMRIQNGMIYAKHLLNSTPITFGAKSMEFVLWTGKYS | -2.36
HMNENYNLSKREKEVLDLLVNGKSYKVIATELAISYETVHSHIKKIYHKLHVSSIGEAVSKTIKQKIL | -1.58
HMNFRESVLAVFENSKQKYLDFDEIAKRLGLTRGFDRQALASMLNELTRNDEIVFTKRNKYTLPEN | 0.125
HMTKRTEPSILQNFDTEIAELIAKNRGISIMDALRIFLASKTHEMLENDEMKLWYFSPLAVFDMWENE | 0.088
HMLGDIYISIPRAKLQAEEYGHSFKRELAFLAVHGFYHLLGYDHQTKEEEEVMFGKQEEVLAEFDIKR | -0.218
HMVITEQTVTVKYLYEDDTEAAPEHSETHKTGETFEIESPKIDGFTPDYELITGTIANDDLVYIVRYKTTP | -0.282
HMLIVLKPNVSQEEIDHIVDKIRSLSLEPHVSTGVQRTIITVIGDEDVIREQPLEALAGVESVKSILKP | -0.0145
HMDAVKKKVQSTNTLLDVLKQMLPQTSSNTLRKMLTNQRITVDGETIHRAKHTVEKDQTVEIHPKP | 0.256
HMKTGNIIAVSLVWKGKYYMIRMFFPSAARPSRADVQTEIEKVYPGSKLSSFSVSDYEPGQPLLQV | -2.31
HMTSIISLAKARSIALQKVPGATSKNIHLSLDDEDDKQVYEGEIKYKQMEYVFEIDAKTGTFLKWTSERD | -1.66
HMAQIVNLPRKNVNGASYYYYEVQPKETIYSISRKLGVSGAEIQRHNPSVADGLKIGQVLYFPAEG | 0.0843
HMTLVSALDQKTKDSAYYRGTYLAGKISAGKMTKQEAVADIMKNYDGNTAAMKVAAEKAGVSDLLSQTVL | 0.234
HMIMDQTILRKQRELTDRLNRYRNEYYNHNKPSVSDEVYDRLFDELQSLEKETGVQMANSPTTTVG | -0.0145
HMGNHRNMSAEEEAAILAPFKARAEAGELVEISEIAKAYQSAVDHPISRGQIYFVLHRHGWRKV | -0.926
HMNAQLTTQEAADLLNVSRPHLVKLLEDGELPFLRTGKHRRVRLADLLQFKNAREQASVQAMDELSRQAQ | 0.154
HMRMTKQRQAVLDELTRVTDFRSAQQIFEDLHSQGHRVGLATIYRSLQGLAEDGSVDTLRSSDGESLY | -0.0884
HMYLGRKATLLSSISGEKMGNAEVLADGNLMSIYVKSLTGEPLSYGSTVLIIKHSEDQNFYLVQN | -2.58
HMRILDFPALKTEFDQLTKDLMAKYPEDGADRVRAIIETVLGPGKKVGALQPHQAELLAEVNTSLKANL | 0.153
HMSGHIPGIKIKGVIFFDKGSSSNHIIATTENNSNLKLRVGETVQGAVLKSIHPNHVIFFHHNQLIEVGIG | -2.21
HMAPDGIEDKEGWLKVLPMITNLSIQMQNLQARGMDYEHIRNLLHETLLRYDDRIDSNLFIPNV | 4.47e-05
HMSLANTSVKEMLNDLVKNEEPSKPLSDEALVKIFKEKGVKIARRTVAKYRAELNILPSHLRRT | -0.749
HMVMTTVPEVLGMDISKAASLLTGKNLDYDYDLVESDKPKDQVIEQDVVKGTEVPEGTVIHLKVSKGPA | 0.228
HMEQISIETRIEQLLARLSETEASGFEELFADTSSRADLITTFLALLEMIRLKLVRVFQDGSFGPIRIYKR | -0.27
HMAVDVNKATAAELDSIKGIGPAISAKILEEKKKGGNFKDWNDLVTRVSGVGEANAAKFSSEGLTVGGAS | 0.0629
